This data set has as its target T1, CREB (Har-CREB) (Helicoverpa armigera, UniProt A0A3G1CVR7 1-265).
T1 sequence: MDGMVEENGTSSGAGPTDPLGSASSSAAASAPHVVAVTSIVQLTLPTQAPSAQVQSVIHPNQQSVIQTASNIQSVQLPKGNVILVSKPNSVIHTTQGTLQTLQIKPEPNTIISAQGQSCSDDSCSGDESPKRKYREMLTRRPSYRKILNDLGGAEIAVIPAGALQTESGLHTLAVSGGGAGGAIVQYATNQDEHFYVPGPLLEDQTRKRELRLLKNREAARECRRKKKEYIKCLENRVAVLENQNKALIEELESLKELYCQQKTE
Nature of the data set: EMSA; shift competed by 100-fold unlabeled PS; EMSA (LightShift): 20 ul, 50 ng/ul poly(dI-dC), 2.5% glycerol, 5 mM MgCl2, 0.05% NP40, 20 fmol biotin probe, RT 20 min; pH and salt not stated. MPS (S22/S23) and NS competitors were tested only with brain nuclear extract without supershift, so not listed. To be noted: protein: ivt; chain copies: 2; blunt. On the technique in general: Mobility shift assays separate free from complexed probe on a gel.

B1: PS (PRMT1 promoter-specific probe) (dsDNA)
DNA 1: CGTTTTTGATATGAGGAAAATGAGCTCTGCAA
DNA 2: TTGCAGAGCTCATTTTCCTCATATCAAAAACG
In the case of B1, the binding result is listed as “binds”.
